# Results: article PMC3478540 (Diabetes, 2012)
# Target: GRP78 in membrane fractions of mouse liver (mouse (endogenous in liver), UniProt P20029 20-655)
# Assay: radioligand binding
# Sequence of GRP78 in membrane fractions of mouse liver (P20029 20-655): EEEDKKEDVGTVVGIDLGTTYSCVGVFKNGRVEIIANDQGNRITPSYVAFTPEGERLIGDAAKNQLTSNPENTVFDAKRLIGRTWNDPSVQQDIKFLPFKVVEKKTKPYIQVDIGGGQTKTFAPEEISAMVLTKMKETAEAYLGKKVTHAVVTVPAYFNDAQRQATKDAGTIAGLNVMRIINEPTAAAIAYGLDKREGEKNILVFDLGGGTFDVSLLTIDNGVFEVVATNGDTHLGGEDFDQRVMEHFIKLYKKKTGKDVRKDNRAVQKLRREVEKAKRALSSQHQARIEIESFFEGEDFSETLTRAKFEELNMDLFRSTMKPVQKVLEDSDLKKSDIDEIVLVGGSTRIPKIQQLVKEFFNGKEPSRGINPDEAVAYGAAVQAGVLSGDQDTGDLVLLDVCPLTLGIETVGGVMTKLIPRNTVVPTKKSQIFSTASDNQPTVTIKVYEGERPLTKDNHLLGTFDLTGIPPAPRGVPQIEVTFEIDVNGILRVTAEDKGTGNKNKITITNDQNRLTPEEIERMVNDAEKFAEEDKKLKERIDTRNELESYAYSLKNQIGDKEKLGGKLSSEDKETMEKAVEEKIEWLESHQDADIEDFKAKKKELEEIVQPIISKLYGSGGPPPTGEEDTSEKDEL
binder,measurement,value
"^125I-vaspin (iodinated rhVaspin) (natural protein, human, UniProt Q8IW75 21-414, looked up, 125I-iodinated, residues not stated) LKPSFSPRNYKALSEVQGWKQRMAAKELARQNMDLGFKLLKKLAFYNPGRNIFLSPLSISTAFSMLCLGAQDSTLDEIKQGFNFRKMPEKDLHEGFHYIIHELTQKTQDLKLSIGNTLFIDQRLQPQRKFLEDAKNFYSAETILTNFQNLEMAQKQINDFISQKTHGKINNLIENIDPGTVMLLANYIFFRARWKHEFDPNVTKEEDFFLEKNSSVKVPMMFRSGIYQVGYDDKLSCTILEIPYQKNITAIFILPDEGKLKHLEKGLQVDTFSRWKTLLSRRVVDVSVPRLHMTGTFDLKKTLSYIGVSKIFEEHGDLTKIAPHRSLKVGEAVHKAELKMDERGTEGAAGTGAQTLPMETPLVVKIDKPYLLLIYSEKIPSVLFLGKIVNPIGK",Kd,22.2 nM
